B1: CPEB3 Ribozyme (parent)
chain: GGGGGCCACAGCAGAAGCGUUCACGUCGCGGCCCCUGUCAGAUUCUGGUGAAUCUGCGAAUUCUGCUGU

Variants of: B1
Test: self-cleavage, relative activity (ratio to wild type); higher = more cleavage; co-transcriptional
With A51U U69C the self-cleavage was 1.07.
A51U U69A showed a self-cleavage of 1.01.
For A51U U69G, the self-cleavage was 1.06.
Variant A51C G58A has a self-cleavage of 0.92.
Work on A51C G58C yielded a self-cleavage of 0.957.
A51C G58U gave a self-cleavage of 1.03.
For U49G G58A, the self-cleavage was 0.912.
Work on A51G U67C yielded a self-cleavage of 0.99.
A51G U67G showed a self-cleavage of 1.01.
Variant A51G U67A has a self-cleavage of 0.967.
With A52G U55G the self-cleavage was 0.729.
Work on A52G U55A yielded a self-cleavage of 0.914.
With A52G U53A the self-cleavage was 0.917.
In the case of G50U U69G, the self-cleavage is reported as 1.05.
With G50U U69A the self-cleavage was 0.99.
In the case of G50U U69C, the self-cleavage is reported as 1.09.
Variant A51G G56U has a self-cleavage of 0.95.
For A52U A59U, the self-cleavage was 0.803.
For A52U A59C, the self-cleavage was 0.716.
Variant A52U A59G has a self-cleavage of 0.972.
Work on A51C G65C yielded a self-cleavage of 0.64.
For A51C G65A, the self-cleavage was 0.807.
For A51G G68C, the self-cleavage was 0.911.
Variant A51G G68A has a self-cleavage of 1.01.
In the case of A51G G68U, the self-cleavage is reported as 1.03.
For G50C C54U, the self-cleavage was 0.921.
Variant G50C C54G has a self-cleavage of 0.654.
A51G U69A showed a self-cleavage of 0.995.
For A51G U69G, the self-cleavage was 1.03.
A51G U62C showed a self-cleavage of 0.884.
A51G U62G showed a self-cleavage of 0.89.
A51G U62A gave a self-cleavage of 0.98.
In the case of G50C A51U, the self-cleavage is reported as 0.942.
In the case of A52C G68U, the self-cleavage is reported as 0.979.
G50C C57A gave a self-cleavage of 0.366.
Variant G50C C57U has a self-cleavage of 0.384.
A52C C54A gave a self-cleavage of 0.615.
With A52C C54U the self-cleavage was 0.856.
In the case of A52C C54G, the self-cleavage is reported as 0.562.
Work on G50A U64A yielded a self-cleavage of 0.937.
With G50A U53C the self-cleavage was 0.949.
G50A U53G gave a self-cleavage of 0.9.
For A52C A60U, the self-cleavage was 0.476.
In the case of A51G C63G, the self-cleavage is reported as 0.772.
With A51G C63U the self-cleavage was 0.96.
For A51G C63A, the self-cleavage was 0.884.
Work on G50A G58U yielded a self-cleavage of 1.02.
For G50A G58A, the self-cleavage was 1.01.
In the case of G50A G65A, the self-cleavage is reported as 0.901.
Variant G50A G65U has a self-cleavage of 0.882.
A52G C54U gave a self-cleavage of 1.02.
With A52G C54A the self-cleavage was 0.931.
Work on A52C A59C yielded a self-cleavage of 0.527.
With A52C A59G the self-cleavage was 0.985.
For A52G G58U, the self-cleavage was 1.
In the case of A52G G58A, the self-cleavage is reported as 0.926.
In the case of A51C G68C, the self-cleavage is reported as 0.996.
In the case of A51C G68A, the self-cleavage is reported as 0.961.
A51C G68U gave a self-cleavage of 1.01.
In the case of A51C U62C, the self-cleavage is reported as 0.76.
Variant A51C U62A has a self-cleavage of 0.901.
With U49G U61A the self-cleavage was 0.921.
With U49G U61C the self-cleavage was 0.802.
Work on A51U U64C yielded a self-cleavage of 0.788.
Variant A51U U64G has a self-cleavage of 0.826.
With A51U U64A the self-cleavage was 0.799.
Work on A51U U55C yielded a self-cleavage of 0.561.
With A51U U55A the self-cleavage was 0.696.
Variant A51U A59C has a self-cleavage of 0.645.
In the case of A51U A59U, the self-cleavage is reported as 0.762.
Work on G50C U53C yielded a self-cleavage of 0.866.
G50C U53G showed a self-cleavage of 0.654.
Variant A51C A60G has a self-cleavage of 0.85.
A51C A60U showed a self-cleavage of 0.468.
In the case of A51C U55A, the self-cleavage is reported as 0.643.
Variant U49G U69G has a self-cleavage of 1.02.
G50U U53A showed a self-cleavage of 0.999.
Work on A52U A60U yielded a self-cleavage of 0.486.
Work on A52U A60C yielded a self-cleavage of 0.47.
A52U A60G gave a self-cleavage of 0.808.
In the case of A51G C57U, the self-cleavage is reported as 0.321.
For A51G C57A, the self-cleavage was 0.399.
With A52C U53A the self-cleavage was 0.936.
A52C U53C gave a self-cleavage of 0.806.
For A52C G65A, the self-cleavage was 0.88.
Variant A52C G65C has a self-cleavage of 0.582.
With A52C G65U the self-cleavage was 0.765.
G50C C66U gave a self-cleavage of 0.981.
In the case of G50C C66G, the self-cleavage is reported as 0.853.
Work on G50C C66A yielded a self-cleavage of 0.728.
With A52C C66G the self-cleavage was 0.782.
Variant A52C C66A has a self-cleavage of 0.68.
A52C C66U gave a self-cleavage of 0.912.
Work on A51C U67A yielded a self-cleavage of 0.961.
A51C U67G gave a self-cleavage of 0.993.
With A52G U69G the self-cleavage was 1.07.
A52G U69A gave a self-cleavage of 0.985.
For A52G U69C, the self-cleavage was 1.06.
G50C A60U gave a self-cleavage of 0.456.
With G50C A60C the self-cleavage was 0.34.
In the case of A51C U53C, the self-cleavage is reported as 0.781.
With A51C U53A the self-cleavage was 0.851.
Work on G50C U67G yielded a self-cleavage of 1.02.
G50C U67C gave a self-cleavage of 0.994.
G50A C63A showed a self-cleavage of 0.856.
For G50A C63G, the self-cleavage was 0.859.
G50U G58A showed a self-cleavage of 0.948.
G50U G58U gave a self-cleavage of 1.03.
For G50C A59C, the self-cleavage was 0.68.
In the case of G50C A59G, the self-cleavage is reported as 1.03.
G50C A59U gave a self-cleavage of 0.767.
For A52U, the self-cleavage was 0.99.
Work on A52C yielded a self-cleavage of 0.993.
Work on A52G yielded a self-cleavage of 0.995.
With U49G G56U the self-cleavage was 0.978.
U49G G56A showed a self-cleavage of 0.966.
For U49G G56C, the self-cleavage was 0.709.
For A52C U61G, the self-cleavage was 0.67.
For A52C U61A, the self-cleavage was 0.893.
Variant A52C U61C has a self-cleavage of 0.759.
In the case of A52C G58U, the self-cleavage is reported as 0.977.
In the case of G50A A59U, the self-cleavage is reported as 0.834.
For G50A A59G, the self-cleavage was 1.02.
A51U A60U gave a self-cleavage of 0.438.
A51U A60G showed a self-cleavage of 0.891.
A51U A60C gave a self-cleavage of 0.378.
Variant A52C G56C has a self-cleavage of 0.536.
A52C G56U gave a self-cleavage of 0.741.
Work on A51C A52C yielded a self-cleavage of 0.949.
A51C A52G showed a self-cleavage of 0.914.
G50U U67C gave a self-cleavage of 1.01.
With G50U A59G the self-cleavage was 1.04.
In the case of G50U A59U, the self-cleavage is reported as 0.834.
Work on G50A U55A yielded a self-cleavage of 0.912.
For G50U G65A, the self-cleavage was 0.953.
A51C C66U showed a self-cleavage of 0.937.
For A51C C66G, the self-cleavage was 0.777.
A51C C66A showed a self-cleavage of 0.628.
For G50U A52C, the self-cleavage was 0.979.
With G50U A52U the self-cleavage was 0.94.
Variant G50U C57G has a self-cleavage of 0.264.
G50U C57U gave a self-cleavage of 0.366.
In the case of G50U C57A, the self-cleavage is reported as 0.355.
Work on G50A C57G yielded a self-cleavage of 0.301.
In the case of A51G U53A, the self-cleavage is reported as 0.981.
A51G U53C showed a self-cleavage of 0.899.
Variant A51G U53G has a self-cleavage of 0.839.
U49G G50A gave a self-cleavage of 1.02.
A52G G56A showed a self-cleavage of 0.983.
For A52G G56C, the self-cleavage was 0.819.
In the case of A52G G56U, the self-cleavage is reported as 0.97.
Variant A51U A52C has a self-cleavage of 0.969.
A51U A52G gave a self-cleavage of 0.982.
With G50U U64A the self-cleavage was 0.954.
With A52C U69C the self-cleavage was 1.05.
In the case of A52C U69G, the self-cleavage is reported as 1.05.
Work on G50U U62G yielded a self-cleavage of 0.977.
Variant G50U U62A has a self-cleavage of 0.989.
Variant A52G C66U has a self-cleavage of 0.971.
A52G C66A showed a self-cleavage of 0.845.
G50A C66U gave a self-cleavage of 1.01.
For A51G C54U, the self-cleavage was 0.986.
A51G C54A gave a self-cleavage of 0.854.
In the case of A51G C54G, the self-cleavage is reported as 0.858.
In the case of G50U U55C, the self-cleavage is reported as 0.766.
For G50A A60C, the self-cleavage was 0.369.
G50A A60G showed a self-cleavage of 1.02.

— the RNAGym collection of RNA variant scans (doi:10.7554/elife.80360)
